By Kd is commonly meant the constant that tells how readily two partners part at equilibrium.

Test [1] addresses HLA-A*01:01. In words: IEDB peptide-MHC binding, purified MHC/direct/fluorescence; filed as Kd, often an IC50 or EC50 that approximates it; ≥ and ≤ were set here for values at or beyond the usual limits of such assays.
In test [2] the target is HLA-A*02:01. Described as above.
Test [3] concerns the target HLA-A*11:01. Described as above.
Test [4] deals with HLA-A*31:01. The description is as above.
For test [5], the target named is HLA-A*68:02. The test is described as above. To be noted: source organism: H9N2 subtype Influenza A virus (A/swine/Korea/S83/2004(H9N2)).
Test [6] concerns the target HLA-A*69:01. The description is as above.
Test [7] concerns the target HLA-B*07:02. Described as above.
Test [8] has as its target HLA-B*15:01. The test is described as above.
The target in test [9] is HLA-B*15:02. The test is described as above. To be noted: source organism: H9N2 subtype Influenza A virus (A/swine/Korea/S83/2004(H9N2)).
Test [10] has as its target HLA-B*15:17. The test is described as above. To be noted: source organism: H9N2 subtype Influenza A virus (A/swine/Korea/S83/2004(H9N2)).
Test [11] addresses HLA-B*39:01. The description is as above.
The target of test [12] is HLA-B*46:01. Described as above.
In test [13] the target is HLA-B*48:01. The test is described as above.
Test [14] has as its target HLA-B*57:01. The test is described as above.
In test [15] the target is HLA-B*58:01. The test is described as above.
Test [16] addresses HLA-A*02:03. Briefly: IEDB peptide-MHC binding, purified MHC/competitive/fluorescence; filed as Kd, often an IC50 or EC50 that approximates it; ≥ and ≤ were set here for values at or beyond the usual limits of such assays. To be noted: source organism: Influenza A virus H3N2.
Test [17] addresses HLA-A*26:02. The description is as above. To be noted: source organism: Influenza A virus H3N2.
Test [18] concerns the target HLA-B*08:01. The description is as above. To be noted: source organism: Influenza A virus H3N2.
Test [19] deals with HLA-B*27:05. Described as above. To be noted: source organism: Influenza A virus H3N2.
For test [20], the target named is HLA-A*03:01. Briefly: IEDB peptide-MHC binding, purified MHC/direct/fluorescence; filed as Kd, often an IC50 or EC50 that approximates it; ≥ and ≤ were set here for values at or beyond the usual limits of such assays.
In test [21] the target is HLA-A*26:01. Described as above.
Test [22] concerns the target HLA-B*18:01. The description is as above.
The target of test [23] is HLA-B*27:03. The description is as above.
The target in test [24] is HLA-B*51:01. The test is described as above.
Test [25] deals with HLA-C*12:03. Described as above. To be noted: source organism: Coxiella burnetii RSA 493.
For test [26], the target named is HLA-A*02:03. The description is as above.
The target of test [27] is HLA-A*02:11. The test is described as above. The note with it: source organism: Yersinia pestis CA88-4125.
Test [28] has as its target HLA-A*02:12. The test is described as above.
Test [29] has as its target HLA-A*02:16. The test is described as above.
Test [30] concerns the target HLA-A*02:19. The description is as above.
For test [31], the target named is HLA-B*15:02. In words: IEDB peptide-MHC binding, purified MHC/competitive/fluorescence; filed as Kd, often an IC50 or EC50 that approximates it; ≥ and ≤ were set here for values at or beyond the usual limits of such assays.
The target of test [32] is HLA-B*27:05. In words: IEDB peptide-MHC binding, purified MHC/direct/fluorescence; filed as Kd, often an IC50 or EC50 that approximates it; ≥ and ≤ were set here for values at or beyond the usual limits of such assays.
Test [33] has as its target HLA-C*06:02. The description is as above. The note with it: source organism: Kurkino virus.
In test [34] the target is HLA-C*07:02. The test is described as above. The note with it: source organism: Kurkino virus.
In test [35] the target is HLA-B*08:01. Described as above. The note with it: source organism: Brucella melitensis.
In test [36] the target is HLA-B*40:01. The test is described as above. To be noted: source organism: Brucella melitensis.
Test [37] concerns the target HLA-B*44:02. Described as above. The note with it: source organism: Brucella melitensis.
Test [38] addresses HLA-B*73:01. The description is as above. To be noted: source organism: Brucella suis 1330.
For test [39], the target named is HLA-C*08:02. Described as above. The note with it: source organism: Bacillus anthracis str. A0389.
Where [40] appears, read: source organism: H9N2 subtype Influenza A virus (A/swine/Korea/S83/2004(H9N2)).
Setting [41] is: source organism: Coxiella burnetii Q321.
[42] abbreviates: source organism: Yersinia pestis CA88-4125.
Setting [43] is: source organism: Yersinia enterocolitica subsp. enterocolitica 8081.
The mark [44] stands for this setting: source organism: Orthohantavirus dobravaense.
Setting [45] is: source organism: Brucella melitensis.
[46] abbreviates: source organism: Bacillus cereus.

Turning to FQKDAKVLF, the Kd in test [1] (setting [40]), in test [2] (setting [40]), in test [3] (setting [40]), in test [4] (setting [40]), in [5] and in [6] (setting [40]) was not below 20 µM each time. Further, the Kd was not below 20 µM in test [7] (setting [40]); 0.116 µM in test [8] (setting [40]); 1.72 µM in [9]; not below 20 µM in test [10]; not below 20 µM in test [11] (source organism: Influenza A virus(A/swine/Shandong/fZC/2003(H9N2))); not below 20 µM in test [12] (setting [40]). Moreover, the Kd in test [13] (setting [40]) is 0.99 µM; in [14] (setting [40]), not below 20 µM; in test [15] (setting [40]), not below 20 µM; in [16], not below 20 µM; in [17] it was not below 20 µM; in test [18], not below 20 µM. In test [19], the Kd came out at 3.34 µM.

In the case of IAFTRLFTV, the Kd in test [20] (setting [41]), in [21] (setting [41]), in test [8] (setting [41]), in test [22] (setting [41]), in [23] (setting [41]) and in test [11] (setting [41]) was not below 20 µM throughout. The Kd was not below 20 µM in test [12] (setting [41]), 3.24 µM in [24] (setting [41]) and not above 0.001 µM in test [25].

As to KLLARFLFE, the Kd in test [2] (setting [42]), in [26] (setting [42]), in [27], in test [28] (setting [42]), in [29] (setting [42]) and in test [30] (setting [42]) was not below 20 µM throughout. The Kd in test [20] (setting [42]), in test [21] (setting [42]), in [8] (setting [42]), in test [22] (setting [42]), in test [23] (setting [42]) and in test [11] (setting [42]) was not below 20 µM in each case. The Kd in test [12] (setting [42]), in test [24] (setting [42]) and in [14] (setting [42]) was not below 20 µM throughout.

Turning to LAYLAGWII, the Kd in test [2] (setting [43]), in test [26] (setting [43]), in test [28] (setting [43]), in test [29] (setting [43]), in test [30] (setting [43]) and in [20] (setting [43]) was not below 20 µM each time. The Kd in test [21] (setting [43]), in test [8] (setting [43]), in [22] (setting [43]), in test [23] (setting [43]), in [11] (setting [43]) and in [12] (setting [43]) was not below 20 µM throughout. This sequence displayed a Kd in test [24] (setting [43]) of 1.39 µM.

In the case of LLRMFDHPF, in [31] (source organism: Vibrio vulnificus YJ016), the Kd was 0.0209 µM.

LQLARDGMF gave a Kd in test [31] (source organism: Brucella suis ATCC 23445) not below 20 µM.

As to RRNDGVVQY, the Kd in test [32] (setting [44]) was 0.146 µM; in test [13] (setting [44]) it was not below 20 µM; in test [33], 0.061 µM; in test [34] it was 0.029 µM.

With RVISDGYFK, the Kd in test [1] (setting [45]) is not below 20 µM; in test [2] (setting [45]), not below 20 µM; in [20] (setting [45]) it was 0.395 µM; in test [3] (setting [45]), 0.0538 µM; in [21] (setting [45]) it was not below 20 µM; in test [4] (setting [45]), 0.042 µM. Further, the Kd is not below 20 µM in test [6] (setting [45]); not below 20 µM in test [7] (setting [45]); not below 20 µM in [35]; not below 20 µM in test [8] (setting [45]); 7.19 µM in test [32] (setting [45]); not below 20 µM in test [36]. The Kd in test [37], in test [15] (setting [45]) and in test [38] was not below 20 µM in each case.

As to YTLNDAPYI, the values for the Kd in test [2] (setting [46]), in test [6] (setting [46]) and in test [39] were 0.0381 µM, 0.0024 µM and 0.181 µM, respectively.

Values taken from the Immune Epitope Database (IEDB).
